Drawing on patent US20220251174A1 (published 2022), this text covers Kd for 1 molecule.

The test addresses SARS-CoV-2 Spike S2-hFc (SARS-CoV-2, UniProt P0DTC2 686-1213). Description: Octet BLI; Fab analyte over S2-hFc on AHC sensors; steady-state analysis. (In general: In BLI a coated tip is dipped into the sample, and binding shifts an interference pattern.)

Description: All label-free interaction analysis was performed on an Octet HTX biolayer interferometry-based detection system (ForteBio/Sartorius, Göttingen, Germany) equipped with various sensor types; AR (amine-reactive), SAX (streptavidin-coated), or AHC (anti-human-Fc capture) sensors. Experiments were conducted at 25° C. in a run buffer of PBS containing 0.05% Tween™-20 and 0.5 mg/mL BSA.
Binding affinity estimates. Different assay formats were used to estimate the binding affinities of Ab/target bimolecular interactions. In one assay format, Fab was titrated as monovalent analyte (typically as a 3-fold series with a top concentration of 3 μM, and at least one concentration in duplicate) over AHC sensors coated with human-Fc-fused targets RBD-hFc, S1-hFc or S2-hFc as ligands (Sino Biological). […] Global affinity estimates were determined using the Kinetics module of Fortebio's Data Analysis HT software version 12.0.1.55. Data were processed by subtracting the responses of a buffer analyte sample and fitting these referenced data globally to a simple 1:1 Langmuir binding model to deduce the KD value from the ratio of the kinetic rate constants (KD=kd/kₐ), where kd and kₐ are the dissociation and association rate constants, respectively. […] All samples were measured on duplicate sensors.

B1: 2-A6 Fab (Fab, V domains shown)
VH: QVTLRESGPALVKPTQTLTLTCTFSGFSLNTRGMSVSWIRQPPGKALEWLALIDWEDDKFYRTSLMTRLTISKDIFKNQVVLTMTNVDPVDTGTYYCARTYSVGVKYFGMDVWGQGTTVTVSS
VL: SSELTQDPAVSVALGQTVRITCQGDSLRNYYASWYRQEPGQAPILLIYGGNYRPSGIPDRFSGSSSGNTASLTITGAQAEDEADYYCNSRDSSGNHVVFGGGTKLTVL
For the molecule B1, the Kd (in general, the constant that tells how readily two partners part at equilibrium) came to 913 nM.
